Like-named read-outs stand apart in the source and are kept apart here.
T1: TGF-beta2 (Rattus, UniProt Q07257 Q07257:331-442)
T1 sequence: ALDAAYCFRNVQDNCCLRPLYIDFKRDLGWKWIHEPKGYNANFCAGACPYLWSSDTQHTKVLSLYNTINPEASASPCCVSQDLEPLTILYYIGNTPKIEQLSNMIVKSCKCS


What was measured:
PDGF-BB [1] = target: T2, PDGF-BB (Homo sapiens, UniProt P01127 P01127:82-190)
PDGF-AB [2] = target: T3, PDGF-AB (Homo sapiens, UniProt P04085;P01127 P04085:87-211,P01127:82-190)
TGF-beta2 = target: T1, TGF-beta2; assay: filter; values in figure only; settings: chain copies: 2 (inferred)
Procedure: Dissociation constants for the binding of aptamers to purified human or rodent TGFβ-2 protein were determined by nitrocellulose-filter partitioning using ³²P-labeled RNA. In vitro transcribed RNA was treated with calf-intestinal alkaline phophatase (New England Biolabs) to remove 5′-triphosphates, then radio-labeled by incubation with γ-³²P-ATP and T4 polynucleotide kinase (New England Biolabs). Unincorporated label was removed by gel-filtration, and the RNAs were further purified by polyacrylamide gel electrophoresis (PAGE). Purified ³²P-labeled aptamer in water was refolded just prior to use by heating for 3 min at 95° C., followed by a 10 minute room-temperature incubation in binding buffer (50 mM Hepes, pH 7.4, 1 mM MgCl₂, 1 mM CaCl₂, 3 mM KCl, 140 mM NaCl, 0.1 mg/ml BSA, 0.01 mg/ml tRNA). The binding reactions (100 μL) were initiated by the addition of aptamer (≦0.1 nM) to excess TGFβ-2 protein (0.2-100 nM), followed by 10-30 minute equilibration at room temperature.
Nitrocellulose-filter partitioning was performed on Minifold® I, 96-well Dot-Blot manifolds (Schleicher & Schuell). Protein-bound aptamer and residual free aptamer were captured, respectively, on pre-wetted Protran nitrocellulose (Schleicher & Schuell) and Hybond-P polyvinylidene difluoride (Amersham Biosciences) filters by vacuum aspiration, and quantified by PhosphorImager (Amersham Biosciences). […]

PDGF-BB [3] = target: T2, PDGF-BB; assay: p237 labels ARC125 as SEQ 16, Table 3 as SEQ 17; settings: chain copies: 2 (inferred)
PDGF-AB [4] = target: T3, PDGF-AB; assay: p237 labels ARC125 as SEQ 16, Table 3 as SEQ 17

T2 sequence (P01127 82-190, one chain of several): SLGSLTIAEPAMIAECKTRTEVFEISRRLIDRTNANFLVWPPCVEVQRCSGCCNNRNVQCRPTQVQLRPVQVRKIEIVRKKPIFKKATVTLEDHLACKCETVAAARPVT
T3 sequence (P01127 82-190, chain 2 of 2, other chains not shown): as the sequence (P01127 82-190, one chain of several) above

Binder | Kd (PDGF-BB [1]) | Kd (PDGF-AB [2]) | binding result (TGF-beta2) | Kd (PDGF-BB [3]) | Kd (PDGF-AB [4])
CACAGGCTACGGCACGTAGAGCATCACCATGATCCTGTG (ssDNA, 3'-3'-dT cap) [ARC124] | 0.1 nM | 0.1 nM |  |  | 
GGAGGUUAUUACAGAGUCUGUAUAGCUGUACUCC (ssRNA, 2'-F all C and U, 2'-OH purines, 3'-inverted T (3T)) [ARC77] |  |  | binds |  | 
TACTCAGGGCACTGCAAGCAATTGTGGTCCCAATGGGCTGAGTA (ssDNA, 3'-3'-dT cap) [ARC125] |  |  |  | 0.1 nM | 0.1 nM
TGGGAGGGCGCGTTCTTCGTGGTTACTTTTAGTCCCG (ssDNA, 3'-3'-dT cap) [ARC123] | 0.1 nM | 0.1 nM |  |  | 
